These results are taken from publication PMC4860004.

The target in the assay is IRΔβ (human insulin receptor ectodomain construct, (αβ)2 homodimer) (human) (UniProt P06213). The assay is described as follows: crystal structure.

“IRΔβ (human insulin receptor ectodomain construct, (αβ)2 homodimer) (from UniProt P06213-2 28-1370)” had a stoichiometry N of 2.

By stoichiometry N is commonly meant the number of molecules, sites or subunits per partner or assembly.
